# *: point of attachment. Myristoyl = CCCCCCCCCCCCCC(=O)*
# B1: recombinant myristoylated human rhinovirus 16 VP4 with six histidines at the C-terminus (VP4His) (natural protein)
# chain: Myristoyl-MGAQVSRQNVGTHSTQNMVSNGSSLNYFNINYFKDAASSGASRLDFSQDPSKFTDPVKDVLEKGIPTLQ-{H2N-H2N-H2N-H2N-H2N-H2N}
# notes: capsid protein VP4 of human rhinovirus 16 (HRV16), the cut product VP4 of the genome polyprotein; native VP4 about 7.4 kDa, VP4His about 8.2 kDa; Plasmid pETVP4His (pET23d); also called recombinant VP4; not shown: His6, C-terminal, kept
# How the values were obtained:
# [1] = biological target: the molecule itself; assay: SDS-PAGE without cross-linking (multimers that survive SDS); VP4His incubated with liposomes, no DSP (Fig. 5B lane 5); non-reducing SDS-PAGE, western blot with antisera to VP4
# [2] = biological target: the molecule itself; assay: cross-linking; VP4His incubated with liposomes (50 uM lipid) at 25 C for 1 hr, DSP 0.5 mM or 1 mM for 20 min at 25 C; non-reducing SDS-PAGE, western blot with antisera to VP4; cross-linking reversed with 50 mM DTT in some samples
protein,measurement,setting,value
B1,stoichiometry N,[1],2
same,stoichiometry N,[2],6

# From paper PMC4125281, “Capsid Protein VP4 of Human Rhinovirus Induces Membrane Permeability by the Formation of a Size-Selective Multimeric Pore” (PLoS Pathogens, 2014)
